Substrate in experiment [1]: B isoform of the insulin receptor (UniProt P06213)
In words: receptor binding affinity, method not described; reference: wild type human insulin.

Experiment [2] has as its target T1, A isoform of the insulin receptor (UniProt P06213-2 28-1370, limits assumed).
T1 construct: also called IR-A
In words: receptor binding affinity, method not described; reference: human insulin; data not shown.

Several values for one entry are separate records, joined by “and”; a condition that tells them apart may be missing. Equal entries are not always repeated. Positions of bridges follow the written chain, without caps; N, C: chain ends. No end group written: not given here.

B1: 4SS 81-04 (SCI-2; 57-mer single-chain insulin analogue with fourth disulfide bridge, cystine B4-A10) (ligand)
chain: FVNCHLCGSHLVEALYLVCGERGFFYTDPTEEGPRRGIVEQCCHSCCSLEQLENYCN
modifications: disulfide 4-46; also: three canonical disulfides, pairing not given here
notes: Single polypeptide chain (B domain, 6-residue C domain EEGPRR, A domain), expressed in Pichia pastoris; Cys at B4 and A10 form a fourth disulfide bridge beside the three canonical ones; also called 57mer SCI-2
For the molecule B1, the fold reduction of affinity relative to wild type human insulin in experiment [1] is 5 fold and 10 fold. Besides, the “affinity relative to human insulin” value in experiment [2] stood at 120 percent.

(Values after patent publication US20200140517A1 (CASE WESTERN RESERVE UNIVERSITY, published 2020).)
